Laboratory results as given in patent US20060234941A1 (US Dept. of Health and Human Services, published 2006).

T1: H-2Db MHC class I molecule on RMA-S cells (mouse, UniProt P01887 21-119; P01899 25-362)
T1 construct: MHC class I stabilised on RMA-S (H-2b) cells by added peptide; detected with anti-H-2Db monoclonal antibody clone 28-14-8; also called H-2Db molecules
T1 sequence (MHC heavy, looked up): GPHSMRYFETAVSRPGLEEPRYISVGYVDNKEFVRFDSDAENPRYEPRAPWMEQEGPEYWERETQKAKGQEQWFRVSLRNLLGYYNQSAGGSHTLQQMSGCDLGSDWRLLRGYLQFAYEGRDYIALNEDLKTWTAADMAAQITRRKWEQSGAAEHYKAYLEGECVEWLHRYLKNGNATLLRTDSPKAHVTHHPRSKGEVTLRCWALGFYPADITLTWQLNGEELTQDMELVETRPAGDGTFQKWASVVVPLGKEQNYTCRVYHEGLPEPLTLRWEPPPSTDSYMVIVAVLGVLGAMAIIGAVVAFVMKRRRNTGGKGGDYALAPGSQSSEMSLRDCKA
T1 sequence (b2m, looked up): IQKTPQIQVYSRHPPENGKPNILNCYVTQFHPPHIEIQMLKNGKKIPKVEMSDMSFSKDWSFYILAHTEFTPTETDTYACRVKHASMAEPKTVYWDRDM


Tests used:
[1] = molecular target: T2, HLA-A2 on the surface of T2 cells (human); experiment: T2 HLA-A2 stabilisation assay, flow cytometry with W6/32
T2 construct: Stabilised HLA-A2 detected with pan HLA class I monoclonal antibody W6/32; also called MHC molecules
Method: To test the binding affinity of the predicted human peptides for HLA-A2, three exemplary peptides, designated KDR505 (SEQ ID NO:6), KDR775 (SEQ ID NO:7) and KDR1093 (SEQ ID NO:5) were synthesized and evaluated in a T2 binding assay as described by Cerundolo et al., Nature 342:449-452, 1990. In brief, T2 cells were cultured in RPMI1640 with 10% FBS, and grown in 5% CO₂ at 37° C. Cells (1×10⁵) in a volume of 100 μl of RPMI 1640 (serum free) were aliquoted into 96-well, U-bottomed plates and incubated with peptide at a final concentration of 0.1-100 μM plus 5 nM β₂ microglobulin (Cymbus Biotechnology Ltd., Chandlers Ford, Hampshire, United Kingdom) for 18 h at 37° C. in 5% CO₂. The level of stabilized HLA-A2 on the surface of the T2 cells was detected using the pan HLA class I monoclonal antibody W6/32 (European Collection of Animal Cell Cultures (ECACC), Porton Down, Salisbury) that recognizes stabilized HLA-A2 complexes. Samples are fixed in 1% paraformaldehyde in PBS prior to analysis and analyzed on a Becton Dickinson FACSCAN®.

[2] = molecular target: T1, H-2Db MHC class I molecule on RMA-S …; experiment: RMA-S MHC class I stabilisation assay, flow cytometry with anti-H-2Db antibody
Method: To test the binding affinity of these peptides to H-2Db, an RMA-S binding experiment was performed, and the FI value in the assay was measured. […] The RMA-Binding assays were performed as previously described (Lyman et al., J. Virol. 76:3125-3134, 2002). Briefly, synthetic peptides were dissolved in dimethyl sulfoxide before dilution. For MHC-binding assays, RMA-S cells were loaded with various peptides for 16 to 18 h at 37° C. Levels of surface class I molecules were assessed by flow cytometric analysis (FACScan; Becton Dickinson) using mouse monoclonal antibodies specific for H-2Db (Southern Biotech, clone No. 28-14-8). FI=Fluorescence after peptides stimulation/ Fluorescence without peptide-1.

Binder | binding result [1] | peptide concentration at FI=0.5 [2] | binding result [2]
ALIEGKNKT [KDR505 (human VEGFR-2/KDR peptide ALIEGKNKT)] | binds |  | 
VILTNPISM (Synthetic peptide (Sigma); also called VEGFR-2/KDR2) [KDR2 (murine VEGFR-2/KDR peptide VILTNPISM)] |  | ~24 µM | 
VLLWEIFSL [KDR1093 (human VEGFR-2/KDR peptide VLLWEIFSL)] | binds |  | 
AMFFWLLLV [KDR775 (human VEGFR-2/KDR peptide AMFFWLLLV)] | binds |  | 
LLGRNSFEV (peptide, UniProt P04637 264-272, looked up, range 264-272; also called wild type P53 264-272) [Human P53 264-272 peptide] |  | > 200 µM | no binding (tested: 200 µM)
RAHYNIVTF (peptide, UniProt P03129 49-57, looked up, range 49-57; also called HPV E7 49-57) [Human Papilloma Virus (HPV)16E7 49-57 peptide] |  | ~12.5 µM | 
FSNSTNDILI (Synthetic peptide (Sigma); also called VEGFR-2/KDR3) [KDR3 (murine VEGFR-2/KDR peptide FSNSTNDILI)] |  | ~3 µM | 
